How the values were obtained:
[1] = substrate: CC(=O)C(=O)O; test: steady-state kinetics (Km), IspC-coupled assay; assay type: biochemical, Pseudomonas aeruginosa; settings: ThDP, Mg2+
[2] = substrate: O=CC(O)COP(=O)(O)O; test: steady-state kinetics (Km), IspC-coupled assay; assay type: biochemical, Pseudomonas aeruginosa; settings: ThDP, Mg2+

B1: 1-deoxy-D-xylulose-5-phosphate synthase (paDXPS) (Pseudomonas aeruginosa PAO1) (protein)
chain: MPKTLHEIPRERPATPLLDRASSPAELRRLGEADLETLADELRQYLLYTVGQTGGHFGAGLGVVELTIALHYVFDTPDDRLVWDVGHQAYPHKILTERRELMGTLRQKNGLAAFPRRAESEYDTFGVGHSSTSISAALGMAIAARLQGKERKSVAVIGDGALTAGMAFEALNHASEVDADMLVILNDNDMSISHNVGGLSNYLAKILSSRTYSSMREGSKKVLSRLPGAWEIARRTEEYAKGMLVPGTLFEELGWNYIGPIDGHDLPTLVATLRNMRDMKGPQFLHVVTKKGKGFAPAELDPIGYHAITKLEAPGSAPKKTGGPKYSSVFGQWLCDMAAQDARLLGITPAMKEGSDLVAFSERYPERYFDVAIAEQHAVTLAAGMACEGMKPVVAIYSTFLQRAYDQLIHDVAVQHLDVLFAIDRAGLVGEDGPTHAGSFDISYLRCIPGMLVMTPSDEDELRKLLTTGYLFDGPAAVRYPRGSGPNHPIDPDLQPVEIGKGVVRRRGGRVALLVFGVQLAEAMKVAESLDATVVDMRFVKPLDEALVRELAGSHELLVTIEENAVMGGAGSAVGEFLASEGLEVPLLQLGLPDYYVEHAKPSEMLAECGLDAAGIEKAVRQRLDRQ
[1]
  Km: 184 ± 25 µM
[2]
  Km: 357 ± 77 µM
